Results: ChEMBL document CHEMBL1135342, “Synthesis and evaluation of thymidine-5'-O-monophosphate analogues as inhibitors of Mycobacterium tuberculosis thymidylate kinase” (Bioorg Med Chem Lett, 2002)

Tests used:
[1] = substrate: Cc1cn(-c2ccc(COP(=O)(O)O)o2)c(=O)[nH]c1=O; experiment: (§1) Compound was tested for binding affinity against Mycobacterium tuberculosis thymidine monophosphate kinase
[2] = substrate: Cc1cn([C@H]2C[C@H](F)[C@@H](COP(=O)(O)O)O2)c(=O)[nH]c1=O; experiment: as §1
[3] = substrate: Cc1cn([C@H]2C[C@H](O)[C@@H](COP(=O)(O)O)O2)c(=O)[nH]c1=O; experiment: as §1
[4] = substrate: O=c1[nH]c(=O)n([C@H]2C[C@H](O)[C@@H](COP(=O)(O)O)O2)cc1Br; experiment: as §1
[5] = substrate: O=c1[nH]c(=O)n([C@H]2C[C@H](O)[C@@H](COP(=O)(O)O)O2)cc1F; experiment: as §1
[6] = substrate: O=c1[nH]c(=O)n([C@H]2C[C@H](O)[C@@H](COP(=O)(O)O)O2)cc1I; experiment: as §1
[7] = substrate: O=c1ccn([C@H]2C[C@H](O)[C@@H](COP(=O)(O)O)O2)c(=O)[nH]1; experiment: as §1

B1: Thymidylate kinase (Mycobacterium tuberculosis), P9WKE1 (protein)
chain: MLIAIEGVDGAGKRTLVEKLSGAFRAAGRSVATLAFPRYGQSVAADIAAEALHGEHGDLASSVYAMATLFALDRAGAVHTIQGLCRGYDVVILDRYVASNAAYSAARLHENAAGKAAAWVQRIEFARLGLPKPDWQVLLAVSAELAGERSRGRAQRDPGRARDNYERDAELQQRTGAVYAELAAQGWGGRWLVVGADVDPGRLAATLAPPDVPS
Km [1]: 140 µM | Km [2]: 30 µM | Km [3]: 4.5 µM | Km [4]: 33 µM | Km [5]: 420 µM | Km [6]: 140 µM | Km [7]: 2100 µM
